Experimental data reported in the supplement of paper PMC10065799, “High-throughput profiling of sequence recognition by tyrosine kinases and SH2 domains using bacterial peptide display” (eLife, 2023).

How the values were obtained:
c-Abl (mouse) = assay: phosphorylation enrichment, bacterial display (enrichment ratio); higher = better substrate or ligand; peptides without Tyr show the background
FGFR1 = FGFR1 (UniProt P11362); assay: as above
EPHB2 = EPHB2 (UniProt P29323); assay: as above
c-Src = assay: as above
Fyn = Fyn (UniProt P06241); assay: as above
AncSZ = assay: as above
Jak2 = Jak2 (UniProt O60674); assay: as above
EPHB1 = EPHB1 (UniProt P54762); assay: as above
Fer (mouse) = assay: as above
FGFR3 = FGFR3 (UniProt P22607); assay: as above
MERTK = MERTK (UniProt Q12866); assay: as above
Fes = Fes (UniProt P07332); assay: as above
Hck = Hck (UniProt P08631); assay: as above
c-Src SH2 = assay: SH2 binding enrichment of the phosphorylated peptide, bacterial display (enrichment ratio); higher = better substrate or ligand; peptides without Tyr show the background
Grb2 SH2 = Grb2 SH2 (UniProt P62993); assay: as above
SHP2-C SH2 = assay: as above
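Wherever SH2 binding enrichment of the phosphorylated peptide, bacterial display is given: peptide library displayed on the E. coli surface as eCPX fusions, selected cells deep-sequenced, score is each peptide's frequency after selection divided by its frequency in the input.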
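Wherever phosphorylation enrichment, bacterial display is given: 11-residue human phosphosite peptides and single-mutation variants displayed on the E. coli surface, counted by deep sequencing, each peptide's frequency after selection divided by its frequency in the unselected input library; frequency after pTyr selection over input frequency; kinase dosed for 20-30% of maximal phosphorylation in three min.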

Chain of Jak2 (O60674 whole entry, looked up): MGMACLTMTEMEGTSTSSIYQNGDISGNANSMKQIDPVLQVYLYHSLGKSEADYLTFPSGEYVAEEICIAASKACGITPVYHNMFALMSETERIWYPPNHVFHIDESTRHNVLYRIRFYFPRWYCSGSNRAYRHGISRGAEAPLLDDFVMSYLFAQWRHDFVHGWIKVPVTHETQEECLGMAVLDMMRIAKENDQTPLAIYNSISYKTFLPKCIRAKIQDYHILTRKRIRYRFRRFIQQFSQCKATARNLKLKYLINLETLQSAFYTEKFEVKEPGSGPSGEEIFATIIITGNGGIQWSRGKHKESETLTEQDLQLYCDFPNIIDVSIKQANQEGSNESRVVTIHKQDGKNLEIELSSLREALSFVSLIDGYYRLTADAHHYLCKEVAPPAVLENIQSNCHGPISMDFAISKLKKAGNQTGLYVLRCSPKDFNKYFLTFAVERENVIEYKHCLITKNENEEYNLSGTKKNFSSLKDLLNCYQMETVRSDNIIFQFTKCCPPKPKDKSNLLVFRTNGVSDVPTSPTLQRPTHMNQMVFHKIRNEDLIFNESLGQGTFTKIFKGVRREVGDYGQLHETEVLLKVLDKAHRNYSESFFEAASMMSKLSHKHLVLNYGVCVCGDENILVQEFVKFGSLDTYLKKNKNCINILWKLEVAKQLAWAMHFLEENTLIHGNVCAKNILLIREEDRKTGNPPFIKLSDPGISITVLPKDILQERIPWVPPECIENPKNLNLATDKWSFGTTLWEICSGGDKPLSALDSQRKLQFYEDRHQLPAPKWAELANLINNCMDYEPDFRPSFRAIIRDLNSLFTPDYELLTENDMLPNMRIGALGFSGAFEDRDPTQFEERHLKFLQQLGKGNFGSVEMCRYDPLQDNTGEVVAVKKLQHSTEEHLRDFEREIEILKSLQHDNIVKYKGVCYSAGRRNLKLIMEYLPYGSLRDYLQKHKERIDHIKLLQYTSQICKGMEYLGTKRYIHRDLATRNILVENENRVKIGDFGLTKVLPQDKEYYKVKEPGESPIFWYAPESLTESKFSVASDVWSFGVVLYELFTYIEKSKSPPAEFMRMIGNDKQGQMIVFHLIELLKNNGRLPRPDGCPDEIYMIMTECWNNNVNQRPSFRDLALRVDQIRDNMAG
Chain of EPHB1 (P54762 whole entry, looked up): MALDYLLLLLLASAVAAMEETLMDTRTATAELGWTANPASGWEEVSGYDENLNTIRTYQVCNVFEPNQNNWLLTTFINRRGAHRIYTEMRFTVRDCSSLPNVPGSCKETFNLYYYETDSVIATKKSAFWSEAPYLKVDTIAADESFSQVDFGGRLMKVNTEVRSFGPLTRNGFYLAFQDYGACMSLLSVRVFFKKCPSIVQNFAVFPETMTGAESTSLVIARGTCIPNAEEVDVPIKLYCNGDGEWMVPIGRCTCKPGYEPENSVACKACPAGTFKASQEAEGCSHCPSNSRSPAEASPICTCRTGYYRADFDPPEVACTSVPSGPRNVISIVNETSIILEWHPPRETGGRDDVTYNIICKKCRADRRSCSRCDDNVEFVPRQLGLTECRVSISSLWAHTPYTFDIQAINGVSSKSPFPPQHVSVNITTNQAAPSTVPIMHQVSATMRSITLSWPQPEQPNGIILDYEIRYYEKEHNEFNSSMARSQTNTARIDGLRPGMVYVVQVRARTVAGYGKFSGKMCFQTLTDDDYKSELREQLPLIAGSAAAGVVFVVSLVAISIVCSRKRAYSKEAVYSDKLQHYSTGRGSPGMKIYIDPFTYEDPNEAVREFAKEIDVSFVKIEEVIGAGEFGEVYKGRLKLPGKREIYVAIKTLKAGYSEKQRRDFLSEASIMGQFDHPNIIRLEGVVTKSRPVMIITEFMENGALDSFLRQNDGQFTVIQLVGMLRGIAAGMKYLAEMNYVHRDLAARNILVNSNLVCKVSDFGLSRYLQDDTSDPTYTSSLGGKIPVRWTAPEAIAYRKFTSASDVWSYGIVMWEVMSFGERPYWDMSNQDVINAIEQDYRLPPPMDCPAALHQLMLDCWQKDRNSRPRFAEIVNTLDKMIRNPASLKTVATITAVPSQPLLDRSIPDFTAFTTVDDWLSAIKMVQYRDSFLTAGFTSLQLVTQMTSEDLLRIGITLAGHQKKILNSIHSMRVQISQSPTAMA
Chain of Fes (P07332 whole entry, looked up): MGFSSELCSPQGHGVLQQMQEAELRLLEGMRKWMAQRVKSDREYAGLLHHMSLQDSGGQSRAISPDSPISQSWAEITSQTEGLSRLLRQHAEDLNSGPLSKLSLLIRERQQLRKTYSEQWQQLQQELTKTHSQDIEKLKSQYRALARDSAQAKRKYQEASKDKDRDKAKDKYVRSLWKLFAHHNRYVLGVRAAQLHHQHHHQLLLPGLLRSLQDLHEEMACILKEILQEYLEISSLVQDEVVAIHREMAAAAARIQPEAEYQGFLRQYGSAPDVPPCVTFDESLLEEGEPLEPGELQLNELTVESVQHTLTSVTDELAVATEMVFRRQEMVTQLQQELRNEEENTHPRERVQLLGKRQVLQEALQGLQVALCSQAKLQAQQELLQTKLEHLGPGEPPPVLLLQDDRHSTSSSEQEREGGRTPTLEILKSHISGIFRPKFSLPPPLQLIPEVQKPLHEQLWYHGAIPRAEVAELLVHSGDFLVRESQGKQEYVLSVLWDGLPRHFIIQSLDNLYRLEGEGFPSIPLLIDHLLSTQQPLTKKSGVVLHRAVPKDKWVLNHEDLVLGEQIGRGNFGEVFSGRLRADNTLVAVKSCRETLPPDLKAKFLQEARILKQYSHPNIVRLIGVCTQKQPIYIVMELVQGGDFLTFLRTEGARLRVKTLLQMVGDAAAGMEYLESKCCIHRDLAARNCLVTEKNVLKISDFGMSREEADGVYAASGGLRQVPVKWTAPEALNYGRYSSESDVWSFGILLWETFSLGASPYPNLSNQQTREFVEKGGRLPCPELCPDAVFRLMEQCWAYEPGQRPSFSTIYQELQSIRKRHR
Chain of FGFR1 (P11362 whole entry, looked up): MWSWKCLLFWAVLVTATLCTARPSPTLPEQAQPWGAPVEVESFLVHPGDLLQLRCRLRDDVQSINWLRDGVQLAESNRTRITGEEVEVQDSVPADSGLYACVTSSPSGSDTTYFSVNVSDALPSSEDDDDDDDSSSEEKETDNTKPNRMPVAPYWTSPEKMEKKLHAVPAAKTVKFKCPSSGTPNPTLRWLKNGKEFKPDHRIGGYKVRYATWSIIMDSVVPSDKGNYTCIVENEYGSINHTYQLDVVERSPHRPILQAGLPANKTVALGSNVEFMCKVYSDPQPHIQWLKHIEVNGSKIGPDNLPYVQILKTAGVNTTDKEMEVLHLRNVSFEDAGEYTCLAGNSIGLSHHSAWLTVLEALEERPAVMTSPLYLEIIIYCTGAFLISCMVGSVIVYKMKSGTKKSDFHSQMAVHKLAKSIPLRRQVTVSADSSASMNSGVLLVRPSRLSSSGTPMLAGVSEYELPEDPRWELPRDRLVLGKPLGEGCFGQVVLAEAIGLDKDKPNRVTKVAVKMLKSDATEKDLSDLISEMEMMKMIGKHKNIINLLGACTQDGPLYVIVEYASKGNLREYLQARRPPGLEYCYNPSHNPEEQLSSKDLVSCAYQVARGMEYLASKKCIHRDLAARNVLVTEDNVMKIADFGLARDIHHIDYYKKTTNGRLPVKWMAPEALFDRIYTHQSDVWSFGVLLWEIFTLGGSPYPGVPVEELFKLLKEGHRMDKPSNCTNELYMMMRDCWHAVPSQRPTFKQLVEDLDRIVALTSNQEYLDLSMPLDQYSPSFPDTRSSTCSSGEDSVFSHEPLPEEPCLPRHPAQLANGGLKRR
Chain of Grb2 SH2 (P62993 whole entry, looked up): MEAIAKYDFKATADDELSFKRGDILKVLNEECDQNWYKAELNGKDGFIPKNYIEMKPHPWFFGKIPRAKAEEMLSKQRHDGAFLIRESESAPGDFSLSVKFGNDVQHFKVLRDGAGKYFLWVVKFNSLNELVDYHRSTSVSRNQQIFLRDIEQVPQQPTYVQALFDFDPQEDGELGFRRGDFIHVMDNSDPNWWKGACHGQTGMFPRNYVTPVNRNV
Chain of EPHB2 (P29323 whole entry, looked up): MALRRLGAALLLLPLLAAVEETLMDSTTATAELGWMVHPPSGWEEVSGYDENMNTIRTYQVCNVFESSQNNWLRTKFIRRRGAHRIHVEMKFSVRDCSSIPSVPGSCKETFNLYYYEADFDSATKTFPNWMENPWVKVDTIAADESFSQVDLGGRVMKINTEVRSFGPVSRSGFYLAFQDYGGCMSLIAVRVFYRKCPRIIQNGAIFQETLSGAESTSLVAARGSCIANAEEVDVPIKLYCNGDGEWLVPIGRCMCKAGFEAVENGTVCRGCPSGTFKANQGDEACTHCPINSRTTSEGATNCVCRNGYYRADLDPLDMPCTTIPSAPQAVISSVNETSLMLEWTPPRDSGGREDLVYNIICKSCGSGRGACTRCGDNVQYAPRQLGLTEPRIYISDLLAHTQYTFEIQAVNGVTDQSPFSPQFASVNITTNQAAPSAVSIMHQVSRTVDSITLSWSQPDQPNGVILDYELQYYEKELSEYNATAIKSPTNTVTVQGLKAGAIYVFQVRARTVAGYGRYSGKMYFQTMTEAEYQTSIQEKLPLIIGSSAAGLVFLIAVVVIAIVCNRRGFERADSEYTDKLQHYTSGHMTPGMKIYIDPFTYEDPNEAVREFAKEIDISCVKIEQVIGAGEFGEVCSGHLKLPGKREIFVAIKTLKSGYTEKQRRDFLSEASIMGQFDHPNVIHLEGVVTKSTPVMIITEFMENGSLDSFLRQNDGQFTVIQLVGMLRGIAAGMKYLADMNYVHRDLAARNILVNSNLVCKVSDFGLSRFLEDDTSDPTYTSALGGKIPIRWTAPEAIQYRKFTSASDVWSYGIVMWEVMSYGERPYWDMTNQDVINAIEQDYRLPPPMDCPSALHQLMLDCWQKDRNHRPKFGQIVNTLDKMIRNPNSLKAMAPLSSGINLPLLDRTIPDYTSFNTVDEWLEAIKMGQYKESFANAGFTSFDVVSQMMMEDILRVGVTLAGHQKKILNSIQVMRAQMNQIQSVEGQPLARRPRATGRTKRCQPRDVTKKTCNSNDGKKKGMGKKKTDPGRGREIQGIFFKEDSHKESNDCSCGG

Sequence	phosphorylation enrichment (c-Abl (mouse))	phosphorylation enrichment (FGFR1)	phosphorylation enrichment (EPHB2)	phosphorylation enrichment (c-Src)	phosphorylation enrichment (Fyn)	phosphorylation enrichment (AncSZ)	phosphorylation enrichment (Jak2)	phosphorylation enrichment (EPHB1)	phosphorylation enrichment (Fer (mouse))	phosphorylation enrichment (FGFR3)	phosphorylation enrichment (MERTK)	phosphorylation enrichment (Fes)	phosphorylation enrichment (Hck)	SH2 binding enrichment (c-Src SH2)	SH2 binding enrichment (Grb2 SH2)	SH2 binding enrichment (SHP2-C SH2)
KWRGQYDVAIR [BTK_Y425_K430R]	0.539	0.426	0.454	0.389	0.446	0.96	0.461	0.498	0.512	0.533	0.341	0.698	0.451	1.74	1.35	1.57
KWTVDYLSQVG [TYW5_Y48]	0.635	0.605	0.494	0.466	0.443	0.953	0.887	0.602	0.391	0.63	0.373	1.05	0.462	0.549	0.886	0.766
LAARFYNWVCF [FLT4_Y1231_S1235C_YF]	1.39	1.65	1.03	1.21	0.849	1.87	2.59	1.33	2.79	2.11	1.17	2.8	0.967	1.02	1.04	0.982
LAGRFYALKSM [CKB_Y174_YF]	1.18	0.479	0.573	0.461	0.463	1.86	1.32	0.677	0.46	0.991	0.666	1.61	0.509	1.12	1.23	1.11
LARDMYDKEFF [MET_Y1230_YF]	0.519	0.517	0.564	0.382	0.507	0.685	0.702	0.515	0.464	0.596	0.396	0.945	0.539	0.506	0.93	0.643
LARDMYDKEYY [MET_Y1230]	0.652	0.921	0.627	0.673	0.624	1.83	1.41	0.815	0.71	0.973	0.449	1.43	0.765	1.37	0.881	0.614
LDAFIYDAAVL [GRIN2A_Y730]	6.28	0.879	3	6.55	9.56	1.18	0.827	2.63	20.3	0.868	3.04	1.53	7.32	0.519	1.14	0.935
LDFNEYFRGLN [HPRT1_Y198_D201G_YF]	0.799	0.788	1.41	0.595	0.746	1.29	1.92	0.832	0.62	0.933	0.714	1.45	0.873	0.862	1.17	1.08
LEQGEYALRSH [HADHB_Y244_D242G]	0.815	0.736	0.556	0.681	0.747	0.935	0.855	0.521	0.564	0.505	0.567	0.993	0.697	0.55	0.752	0.788
LEQQKYTVTID [IKBKB_Y199_V203I]	0.696	0.75	0.81	0.569	0.638	1.27	1.02	0.932	0.518	0.975	0.602	1.57	0.682	0.486	0.826	0.752
LERYIYNREEL [HLA-DPB1_Y59_F64L]	0.777	0.41	0.407	1.93	0.987	0.713	0.731	0.653	0.444	0.58	0.371	0.944	1.55	0.852	0.914	0.709
LFEDCYLLGTS [ASS1_Y87_R86C_YF]	1.17	0.895	0.716	1.6	1.01	2.1	1.39	0.572	0.752	1.15	0.442	1.5	0.58	0.647	1.24	0.924
LFNQDYPIHCV [GATM_Y227_S231C_YF]	1.11	4.54	0.889	0.33	0.777	1.43	1.17	1.32	1.03	2.52	0.729	1.49	0.555	0.407	0.446	0.806
LGGAMYYLEAE [PKHD1_Y452]	1.2	2.22	1.25	2.14	2.54	1.42	1.42	1.62	0.667	2.46	1.74	1.61	1.4	0.841	0.811	0.657
LGNFNYEQRGA [API5_Y497]	0.715	0.569	0.456	0.43	0.435	0.761	0.919	0.474	0.408	0.507	0.392	0.986	0.485	0.462	0.87	0.487
LGRTRYQDVTG [MIPEP_Y510_H512D]	0.799	0.525	0.548	0.584	0.586	0.899	0.888	0.62	0.563	0.665	0.722	0.735	0.336	1	0.986	0.95
LICRRYLVMQR [IL3RA_Y328_V323L]	1.22	0.926	1.72	1.01	0.564	2.5	2.35	0.827	0.956	0.834	1.01	2.01	0.729	0.414	0.695	0.675

Sequence	phosphorylation enrichment (c-Abl (mouse))	phosphorylation enrichment (FGFR1)	phosphorylation enrichment (EPHB2)	phosphorylation enrichment (c-Src)	phosphorylation enrichment (Fyn)	phosphorylation enrichment (AncSZ)	phosphorylation enrichment (Jak2)	phosphorylation enrichment (EPHB1)	phosphorylation enrichment (Fer (mouse))	phosphorylation enrichment (FGFR3)	phosphorylation enrichment (MERTK)	phosphorylation enrichment (Fes)	phosphorylation enrichment (Hck)	SH2 binding enrichment (c-Src SH2)	SH2 binding enrichment (Grb2 SH2)	SH2 binding enrichment (SHP2-C SH2)
LIDTVYSSSSA [OR4C12_Y71]	1.03	0.979	0.782	3.25	3.74	1.06	1.19	0.757	0.96	1.32	0.641	1.57	3.42	0.551	0.603	0.734
LIFVSYDDWDF [GRIN2A_Y281_S278F_YF]	2.77	1.38	2.89	1.79	1.02	4.68	4.29	2.23	17.4	2.55	2.03	4.34	1.1	1.01	1.68	1.53
LKDEDYLKDIV [HAUS3_Y582]	1.64	1.04	0.843	1.02	0.791	2.21	2.87	0.861	1.4	0.988	0.884	1.85	0.787	0.455	0.912	0.983
LKKKQYTSIHH [APP_Y728]	1.39	0.631	0.605	1.03	0.92	0.631	0.949	0.739	0.688	0.903	0.508	0.787	0.869	1.89	1.53	2.63
LKMLVYLDMSK [LRRC7_Y234]	1.18	0.347	0.805	0.441	0.654	1.36	1.24	1.01	0.475	1.13	0.545	1.72	0.559	0.531	0.757	0.721
LKRIAYFLCLL [LGI1_Y21]	0.821	0.696	0.536	0.484	0.506	1.05	1.09	0.64	0.714	0.741	0.424	1.53	0.394	1.23	1.4	1.18
LKTNWYNNGKD [DNMT3B_Y404_C403W]	1.62	0.664	0.688	0.838	0.544	1.54	1.18	0.468	0.644	1.05	0.736	1.44	1.01	0.464	1.17	1.12
LLLLFYVVRFC [MPZ_Y177_YF]	0.863	1.47	0.443	0.726	0.637	0.918	0.664	0.741	1.14	0.742	0.805	1.21	0.472	1.14	1.69	1.9
LLQAEYWHDPI [PPT1_Y185_V181L]	1.62	4.99	0.511	0.864	0.975	1.89	1.55	0.682	0.74	3.92	0.726	1.96	0.667	1.27	0.805	0.803
LLTALYFISRG [KCNH2_Y780]	1.05	0.8	0.859	1.81	0.732	1.57	1.25	0.645	0.716	0.71	3.27	1.69	1.24	2.43	2.34	1.99
LLVVLCKFRCF [PSEN1_Y154_Y154C_YF]	1.23	0.648	0.694	1.48	0.731	1.4	1.82	0.619	0.722	0.999	0.984	1.73	0.887	1.57	1.82	1.84
LMLVLYGRIFL [HTR1A_Y215_R220L]	0.996	0.851	0.692	0.778	0.433	1.11	1.28	1.11	0.745	0.968	0.651	1.93	0.654	0.556	1.16	0.776
LNERHYGGLTG [PGAM2_Y92]	0.789	0.607	0.432	0.47	0.53	0.679	4.09	0.417	0.394	0.552	0.527	0.856	0.454	0.415	0.761	0.53
LPEHPYHSRPR [NDUFA8_Y142_N140H]	0.828	1.02	1.57	1.27	2.04	1.97	0.823	0.861	1.03	2.71	1.17	3.08	1.9	0.704	0.958	0.538
LPENPYHSRPR [NDUFA8_Y142]	0.761	0.442	0.41	1.8	0.72	0.643	0.552	0.3	0.384	0.408	0.415	0.632	0.916	0.561	1.03	0.637
LPIQTYSALNF [DES_Y423]	1.59	2.1	11.7	8	13.8	1.01	1.27	14.3	11.1	2.07	15.9	1.24	18.9	1.08	0.735	0.834
